Experimental data: patent publication US20070190075A1, “Hair growth stimulant composition” (Advangen, Inc. c/o National Institute of Advance Science …, priority 2003, published 2007)

Test system: C3H/He mouse
Assay: Application to mouse after induction of growing stage, with hypodermic FGF-5 injection; shapes and sizes of hair follicles in skin slices
Assay type: in vivo
Conditions: FGF-5 5 μg hypodermically for 7 days; vs phosphate-buffered saline injected group
Procedure: The hair on the back of a C3H/He mouse (purchased from Japan SLC, Inc.) of an age of 8 weeks whose hair cycle was in the resting stage was pulled out to induce the growing stage. For 7 days from the day following the induction, FGF-5 of 5 μg was hypodermically injected at the same place every time, and around the injected place, the plant extracts from rose fruit, etc. (50% ethanol solutions), “tea extract” and “green tea extract” described in Example 1 were each further applied in an amount of 0.02 ml/cm^2 once a day. To a mouse of a control group, 50% ethanol was applied once a day in the same manner. Further, as a control to the FGF-5 hypodermic injection group, a mouse group wherein a phosphate-buffered saline solution was injected, was prepared.
On the day following the final application, the mouse was killed by dislocation of cervical vertebrae, and the skin at the applied place was taken. The skin thus taken was subjected to fixation with a 10% formalin aqueous solution, then treatment with an ethanol dehydration series, cleaning with xylene and embedding with paraffin. Using a microtome (available from Yamato), the skin was sliced in such a direction that the hair follicle from the top to the bottom could be completely visible, to prepare a skin slice of 4 μm. The resulting skin slice was extended on a silane-coated slide glass (available from Matsunami). […]

B1: FGF-5: Fibroblast growth factor 5, a cytokine that inhibits hair growth; injected hypodermically as challenge agent (protein, UniProt P12034 21-268, looked up)
Fibroblast growth factor 5: HGEKRLAPKGQPGPAATDRNPRGSSSRQSSSSAMSSSSASSSPAASLGSQGSGLEQSSFQWSPSGRRTGSLYCRVGIGFHLQIYPDGKVNGSHEANMLSVLEIFAVSQGIVGIRGVFSNKFLAMSKKGKLHASAKFTDDCKFRERFQENSYNTYASAIHRTEKTGREWYVALNKRGKAKRGCSPRVKPQHISTHFLPRFKQSEQPELSFTVTVPEKKKPPSPIKPKIPLSAPRKNTNSVKYRLKFRFG
growth of hair follicles after hypodermic FGF-5 injection: growth of the hair follicles was inhibited more than that in the group wherein a phosphate-buffered saline solution had been injected
